Molecular target: complement factor C1q (UniProt P02745)
Experiment: flow cytometry: BT-474 cells with 10 µg/mL antibody, then 10 µg/mL C1q, detected with PE-labeled anti-C1q antibody

complement factor C1q, sequence (P02745 23-245 limits assumed, chain 1 of 3): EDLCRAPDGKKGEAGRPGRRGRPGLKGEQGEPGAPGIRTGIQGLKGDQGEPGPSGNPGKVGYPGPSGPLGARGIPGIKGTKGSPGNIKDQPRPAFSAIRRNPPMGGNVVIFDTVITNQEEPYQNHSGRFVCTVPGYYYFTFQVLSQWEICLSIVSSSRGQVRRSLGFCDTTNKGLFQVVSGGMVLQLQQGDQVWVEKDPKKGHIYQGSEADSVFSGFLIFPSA
complement factor C1q, sequence (P02746 28-253 limits assumed, chain 2 of 3, further chain): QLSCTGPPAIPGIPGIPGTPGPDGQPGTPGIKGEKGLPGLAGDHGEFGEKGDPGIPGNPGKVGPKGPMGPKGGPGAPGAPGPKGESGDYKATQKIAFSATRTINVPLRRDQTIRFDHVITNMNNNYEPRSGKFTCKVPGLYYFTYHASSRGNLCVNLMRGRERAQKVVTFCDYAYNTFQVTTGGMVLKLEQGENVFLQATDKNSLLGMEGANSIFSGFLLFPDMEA
complement factor C1q, sequence (P02747 29-245 limits assumed, chain 3 of 3, further chain): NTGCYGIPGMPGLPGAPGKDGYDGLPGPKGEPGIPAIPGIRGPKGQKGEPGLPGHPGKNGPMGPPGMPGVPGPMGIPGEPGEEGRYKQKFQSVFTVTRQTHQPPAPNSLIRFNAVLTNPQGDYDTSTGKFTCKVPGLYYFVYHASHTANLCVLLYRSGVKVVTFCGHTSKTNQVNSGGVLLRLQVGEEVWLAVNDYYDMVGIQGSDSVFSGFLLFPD

PE-signal (geomean) (geomean PE-signal): 2160
Substance: combination of trastuzumab and pertuzumab (from UniProt P0DOX5 2-449; P0DOX5 2-449)
